The values that follow come from the supplement of paper PMC10567573.

To fix the notation:
B1: KIAA1161 (parent)
chain: FMPAMQFSIPPWRYDAEVVAIAQK
B2: SLC2A12 (parent)
chain: CLLGLGSLVLILSLSYTVLIVGRI
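Note: lentivirally expressed fusions sorted by FACS into six bins by GFP to DsRed ratio, PSI derived from sequencing read proportions per bin multiplied by bin number.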

In the first data set the parent is B1. In words: protein stability index of a GFP-peptide fusion (GPS, HEK-293T) (PSI 1-6); higher = more stable. The following applies: c terminus: a fixed tail appended.
Consider FMPAMQFSIPPWRYDVEVVAIAQK [A16V], for which the protein stability index was found to be 2.52.
Regarding FMPAMQFSIPKWRYDAEVVAIAQK [P11K], the protein stability index was 1.65.
The same measure, in the same setting: the result for FMPAMQFSIPYWRYDAEVVAIAQK [P11Y] reads 2.28.
Regarding FMPAMQFSIPTWRYDAEVVAIAQK [P11T], the protein stability index worked out at 1.69.
For the variant FWPAMQFSIPPWRYDAEVVAIAQK [M2W], the protein stability index is 2.09.
FYPAMQFSIPPWRYDAEVVAIAQK [M2Y]: the protein stability index was 1.79.
Turning to FMPKMQFSIPPWRYDAEVVAIAQK [A4K], the protein stability index amounted to 1.87.
For FMPRMQFSIPPWRYDAEVVAIAQK [A4R], the protein stability index was found to be 2.66.
For the variant FMPCMQFSIPPWRYDAEVVAIAQK [A4C], the protein stability index was 1.47.
In the case of FMPAMQFSIPPWRYDAEVVAFAQK [I21F], the protein stability index was determined as 2.52.
As to FMPAMQFSIPPWRYDAEVVAYAQK [I21Y], the protein stability index worked out at 1.64.
Take FMPAMQFSIPPWRCDAEVVAIAQK [Y14C]: the protein stability index is 1.67.
On the same count and under the same terms, the result for FMPAMQFSIPPWRLDAEVVAIAQK [Y14L] reads 1.59.
As to FMPAMQFSIPPWRYDAEVVAIAAK [Q23A], the protein stability index is 2.23.
On to FMPAMQFSIPPWRYDAEVVAIANK [Q23N], for which the protein stability index is 1.85.
Turning to FMPAMQFSIHPWRYDAEVVAIAQK [P10H], the protein stability index is 1.77.
As for FMPAMQFRIPPWRYDAEVVAIAQK [S8R], the protein stability index worked out at 1.99.
As for FMPAMHFSIPPWRYDAEVVAIAQK [Q6H], the protein stability index amounted to 1.86.
On the same count and under the same terms, with FMPAMGFSIPPWRYDAEVVAIAQK [Q6G] the figure was 1.83; with FMPAMEFSIPPWRYDAEVVAIAQK [Q6E], 1.83; with FMPAMQFSIPPWFYDAEVVAIAQK [R13F], 1.1.
For FMPAMQFSIPPWKYDAEVVAIAQK [R13K], the protein stability index stood at 2.21.
Turning to FMPAMQFSIPPWRYDAEDVAIAQK [V18D], the protein stability index came to 2.36.
Consider FMPAMQFSIPPWRYDAEWVAIAQK [V18W], for which the protein stability index amounted to 3.22.
With FMPAMQFSIPPWRYDAEIVAIAQK [V18I], the protein stability index was determined as 2.06.
FMPAMQFSIPPWRYDAELVAIAQK [V18L]: the protein stability index stood at 2.23.
Same read-out and setting: the result for FMPAMQFSIPPWRYDAEVVAIQQK [A22Q] reads 2.56; that for FMPAMQHSIPPWRYDAEVVAIAQK [F7H], 2.01; that for FMIAMQFSIPPWRYDAEVVAIAQK [P3I], 2.58.
In the case of FMPAMQFSFPPWRYDAEVVAIAQK [I9F], the protein stability index is 2.48.
Same read-out and setting: the result for FMPAMQFSDPPWRYDAEVVAIAQK [I9D] reads 2.57; that for FMPAMQFSGPPWRYDAEVVAIAQK [I9G], 1.95.
Same read-out and setting: with PMPAMQFSIPPWRYDAEVVAIAQK [F1P] the figure was 2.33; with EMPAMQFSIPPWRYDAEVVAIAQK [F1E], 2.81; with FMPAPQFSIPPWRYDAEVVAIAQK [M5P], 2.6.
The same measure, in the same setting: the result for FMPAAQFSIPPWRYDAEVVAIAQK [M5A] reads 2.15.
In the case of FMPAMQFSIPPWRYDAEVVRIAQK [A20R], the protein stability index was determined as 1.98.
FMPAMQFSIPPWRYDAEVVKIAQK [A20K]: the protein stability index came out at 2.34.
With FMPAMQFSIPPSRYDAEVVAIAQK [W12S], the protein stability index turned out to be 2.48.
Consider FMPAMQFSIPPYRYDAEVVAIAQK [W12Y], for which the protein stability index is 1.99.
In the case of FMPAMQFSIPPMRYDAEVVAIAQK [W12M], the protein stability index was 2.7.
Turning to FMPAMQFSIPPARYDAEVVAIAQK [W12A], the protein stability index was determined as 2.31.
Consider FMPAMQFSIPPWRYDAEVHAIAQK [V19H], for which the protein stability index came out at 1.56.
Take FMPAMQFSIPPWRYDAEVAAIAQK [V19A]: the protein stability index was 2.18.
Turning to FMPAMQFSIPPWRYDAEVDAIAQK [V19D], the protein stability index worked out at 2.82.
For the variant FMPAMQFSIPPWRYDAEVSAIAQK [V19S], the protein stability index came out at 1.48.
For FMPAMQFSIPPWRYDAIVVAIAQK [E17I], the protein stability index worked out at 1.52.
Turning to FMPAMQFSIPPWRYDANVVAIAQK [E17N], the protein stability index amounted to 1.62.
Same read-out and setting: with FMPAMQFSIPPWRYMAEVVAIAQK [D15M] the figure was 2.56; with FMPAMQFSIPPWRYDAEVVAIAQE [K24E], 1.82.
Regarding FMPAMQFSIPPWRYDAEVVAIAQN [K24N], the protein stability index is 2.58.
As to FMPAMQFSIPPWRYDAEVVAIAQV [K24V], the protein stability index came to 2.36.
Take FMPAMQFSIPPWRYDAEVVAIAQP [K24P]: the protein stability index came to 2.01.
FMPAMQFSIPPWRYDAEVVAIAQC [K24C]: the protein stability index was 1.61.

Another data set covers variants of B2. The description is as above. The following applies: c terminus: a fixed tail appended.
CLLGLGSLVLILSLSYTVRIVGRI [L19R]: the protein stability index was 4.06.
Same read-out and setting: the result for CLLGLGSLVLILSLSYTVWIVGRI [L19W] reads 1.77.
For the variant CLLGLGSLVLILSLSYTVPIVGRI [L19P], the protein stability index amounted to 3.35.
Take CLLGLGSLVLILSLSYTVHIVGRI [L19H]: the protein stability index turned out to be 3.95.
The same measure, in the same setting: with CLLGLGSLVLILSLSYTVVIVGRI [L19V] the figure was 3.24; with CLLGLGSLVLILSLSYTVNIVGRI [L19N], 2.96.
As for CLLGLGSLVLILSLSYTVLIVGTI [R23T], the protein stability index is 2.41.
As to CLLGLGSLVLILSLSYTVLIVGII [R23I], the protein stability index was found to be 1.07.
Take CLLGLGSLVLILSLSYTVLIVGKI [R23K]: the protein stability index was 3.91.
Take CLLGLGSLVLILSLSYTVLIVGAI [R23A]: the protein stability index was 1.68.
Consider CLLGLGSLVLILSLSYTVLIVGYI [R23Y], for which the protein stability index amounted to 1.35.
Take CLLGLGSLVLILSLSYTVLIVGFI [R23F]: the protein stability index amounted to 1.85.
Consider CLLGLGSLVLILSLSYTVLIVGQI [R23Q], for which the protein stability index came to 2.57.
As for CLLGLGSLVLILSLSYTVLIVGMI [R23M], the protein stability index turned out to be 2.33.
For CLLGLGSLVLILSLSYTVLIVGLI [R23L], the protein stability index came out at 2.88.
On to CLLGLGSLVLILSLSYTVLIVGCI [R23C], for which the protein stability index was found to be 3.83.
On the same count and under the same terms, with CLLGLGSLVLILSLSYTVLIVGEI [R23E] the figure was 3.06; with CLLGLGSLVLILSLSYTVLQVGRI [I20Q], 3.17.
Take CLLGLGSLVLILSLSYTVLMVGRI [I20M]: the protein stability index amounted to 2.69.
Regarding CLLGLGSLVLILSLSYTVLPVGRI [I20P], the protein stability index turned out to be 2.85.
With CLLGLGSLVLILSLSYTVLNVGRI [I20N], the protein stability index stood at 3.97.
Take CLLGLGSLVLILSLSYTVLLVGRI [I20L]: the protein stability index worked out at 3.62.
CLLGLFSLVLILSLSYTVLIVGRI [G6F]: the protein stability index worked out at 2.27.
Regarding CLLGLTSLVLILSLSYTVLIVGRI [G6T], the protein stability index amounted to 2.06.
Regarding CLLGLESLVLILSLSYTVLIVGRI [G6E], the protein stability index came out at 3.33.
The same measure, in the same setting: with CLLGLYSLVLILSLSYTVLIVGRI [G6Y] the figure was 3.29.
CLLGLASLVLILSLSYTVLIVGRI [G6A]: the protein stability index amounted to 2.43.
Consider CLLGLCSLVLILSLSYTVLIVGRI [G6C], for which the protein stability index worked out at 4.32.
For CLLGLISLVLILSLSYTVLIVGRI [G6I], the protein stability index was 2.69.
On the same count and under the same terms, the result for CLLGLHSLVLILSLSYTVLIVGRI [G6H] reads 2.78; that for CLLGLDSLVLILSLSYTVLIVGRI [G6D], 3.1.
Take CLLGLGSLVLDLSLSYTVLIVGRI [I11D]: the protein stability index worked out at 3.63.
As to CLLGLGSLVLWLSLSYTVLIVGRI [I11W], the protein stability index was determined as 1.42.
As to CLLGLGSLVLELSLSYTVLIVGRI [I11E], the protein stability index is 4.57.
On to CLLGLGSLVLYLSLSYTVLIVGRI [I11Y], for which the protein stability index amounted to 1.36.
As for CLLGLGSLVLILSLCYTVLIVGRI [S15C], the protein stability index was determined as 4.02.
On the same count and under the same terms, the result for CLLGLGSLVLILSLNYTVLIVGRI [S15N] reads 3.57; that for CLLGLGSLVLILSLQYTVLIVGRI [S15Q], 1.91.
Take CLLGLGSLVLILSLHYTVLIVGRI [S15H]: the protein stability index turned out to be 3.25.
For CLLGLGSLVLILSLWYTVLIVGRI [S15W], the protein stability index turned out to be 1.8.
